Among the data in the supplement of paper PMC12783771 are sfGFP reporter fluorescence values, retold here.

To fix the notation:
B1: library; numbered along this chain (parent)
chain: MNIQIGELAKRTACPVVTIRFYEQEGLLPPPGRSRGNFRLYGEEHVERLQFIRHCRSLDMPLSDVRTLLSYRKRPDQDCGEVNMLLDEHIRQVESRIGALLELKHHLVELREACSGARPAQSCGILQGLSDCVCDTRGTTAHPSD

± gives the standard deviation of the averaged measurements.

Variants of B1 are the subject of data set [1]. The data set can be described thus: sfGFP reporter fluorescence (15 h) (µM FITC); higher = higher leak. Particulars: library round: Round 1; ligand: none. The procedure, abridged:
(§1)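 Readout was endpoint sfGFP fluorescence, converted to µM FITC through standard curves. Reactions were 1 μL of BL21 Star (DE3) PANOx-SP extract with pPbrR-sfGFP reporter, 30 μg/mL GamS and linear PbrR templates normalized to 5 nM, containing 1 µM lead chloride, 30 µM zinc acetate or no metal. Incubation lasted 15 hr at 30 °C, with up to three biological replicates.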

The variants in data set [2] derive from B1. The data set can be described thus: sfGFP reporter fluorescence (15 h) (µM FITC); higher = stronger transcriptional activation. Particulars: library round: Round 1. Put shortly:
as §1

As for D64K R111L, the figures for the sfGFP reporter fluorescence in data set [1], in data set [2] (ligand: 1 µM Pb) and in data set [2] (ligand: 30 µM Zn) were 0.06487 ± 0.00064, 0.154 ± 0.013 and 0.898 ± 0.071, respectively.

With D64K R111D, the results for the sfGFP reporter fluorescence in data set [1], in data set [2] (ligand: 1 µM Pb) and in data set [2] (ligand: 30 µM Zn) were 0.0666 ± 0.00092, 0.164 ± 0.011 and 0.682 ± 0.097, respectively.

In the case of D135A T136S, the sfGFP reporter fluorescence in data set [1] was determined as 0.065 ± 0.00085; in data set [2] (ligand: 1 µM Pb), 0.0751 ± 0.0085; in data set [2] (ligand: 30 µM Zn), 0.424 ± 0.047.

With G128I D135P, the results for the sfGFP reporter fluorescence in data set [1], in data set [2] (ligand: 1 µM Pb) and in data set [2] (ligand: 30 µM Zn) were 0.074 ± 0.0013, 0.172 ± 0.013 and 0.904 ± 0.084, respectively.

R96A K104V G128M: the sfGFP reporter fluorescence in data set [1] came out at 0.0678 ± 0.0023; in data set [2] (ligand: 1 µM Pb) it was 0.0902 ± 0.0061; in data set [2] (ligand: 30 µM Zn), 0.257 ± 0.008.

Take M60L D64K D131C: the sfGFP reporter fluorescence in data set [1] was found to be 0.344 ± 0.036; in data set [2] (ligand: 1 µM Pb) it was 0.896 ± 0.29; in data set [2] (ligand: 30 µM Zn), 2.2 ± 0.15.

Take E109A D131C: the figures for the sfGFP reporter fluorescence in data set [1], in data set [2] (ligand: 1 µM Pb) and in data set [2] (ligand: 30 µM Zn) were 0.0641 ± 0.0019, 0.0804 ± 0.0035 and 0.462 ± 0.0051, respectively.

In the case of N83T E94R, the figures for the sfGFP reporter fluorescence in data set [1], in data set [2] (ligand: 1 µM Pb) and in data set [2] (ligand: 30 µM Zn) were 0.0643 ± 0.0013, 0.0792 ± 0.002 and 0.128 ± 0.0019, respectively.

Regarding E109L G128H P143L, the sfGFP reporter fluorescence in data set [1] stood at 0.0639 ± 0.00092; in data set [2] (ligand: 1 µM Pb) it was 0.0852 ± 0.0089; in data set [2] (ligand: 30 µM Zn) it was 0.204 ± 0.018.

N83T K104V L107I: the figures for the sfGFP reporter fluorescence in data set [1], in data set [2] (ligand: 1 µM Pb) and in data set [2] (ligand: 30 µM Zn) were 0.0623 ± 0.0016, 0.0753 ± 0.0068 and 0.112 ± 0.0052, respectively.

Consider D64A I97M, for which the sfGFP reporter fluorescence is 0.0644 ± 0.002 in data set [1], 0.0781 ± 0.0023 in data set [2] (ligand: 1 µM Pb) and 0.507 ± 0.02 in data set [2] (ligand: 30 µM Zn).

Regarding I90L G128T D135A, the figures for the sfGFP reporter fluorescence in data set [1], in data set [2] (ligand: 1 µM Pb) and in data set [2] (ligand: 30 µM Zn) were 0.0632 ± 0.00092, 0.0679 ± 0.0048 and 0.266 ± 0.031, respectively.

Turning to L107C C134I, the figures for the sfGFP reporter fluorescence in data set [1], in data set [2] (ligand: 1 µM Pb) and in data set [2] (ligand: 30 µM Zn) were 0.731 ± 0.13, 1.15 ± 0.15 and 2.12 ± 0.21, respectively.

In the case of N83T K104V, the figures for the sfGFP reporter fluorescence in data set [1], in data set [2] (ligand: 1 µM Pb) and in data set [2] (ligand: 30 µM Zn) were 0.0623 ± 0.0026, 0.113 ± 0.0044 and 0.249 ± 0.025, respectively.

In the case of L107C E109H, the values for the sfGFP reporter fluorescence in data set [1], in data set [2] (ligand: 1 µM Pb) and in data set [2] (ligand: 30 µM Zn) were 0.16 ± 0.0068, 0.673 ± 0.092 and 1.68 ± 0.14, respectively.

Take N83S P143W: the sfGFP reporter fluorescence in data set [1] came out at 0.0614 ± 0.0019; in data set [2] (ligand: 1 µM Pb), 0.102 ± 0.012; in data set [2] (ligand: 30 µM Zn), 0.556 ± 0.027.

In the case of N83T C134V, the values for the sfGFP reporter fluorescence in data set [1], in data set [2] (ligand: 1 µM Pb) and in data set [2] (ligand: 30 µM Zn) were 0.0588 ± 0.0022, 0.0731 ± 0.0054 and 0.168 ± 0.016, respectively.

On to P61L L62I, for which the sfGFP reporter fluorescence in data set [1] was 0.063 ± 0.00064; in data set [2] (ligand: 1 µM Pb) it was 0.063 ± 0.0019; in data set [2] (ligand: 30 µM Zn), 0.0771 ± 0.0011.

In the case of N83T D135F, the sfGFP reporter fluorescence in data set [1] is 0.0665 ± 0.00076; in data set [2] (ligand: 1 µM Pb), 0.0911 ± 0.014; in data set [2] (ligand: 30 µM Zn) it was 0.435 ± 0.062.

Consider P61L K104V, for which the sfGFP reporter fluorescence was 0.0638 ± 0.00097 in data set [1], 0.0617 ± 0.005 in data set [2] (ligand: 1 µM Pb) and 0.0765 ± 0.0044 in data set [2] (ligand: 30 µM Zn).

With P61D D64K, the sfGFP reporter fluorescence in data set [1] amounted to 0.168 ± 0.0064; in data set [2] (ligand: 1 µM Pb), 0.454 ± 0.038; in data set [2] (ligand: 30 µM Zn), 1.44 ± 0.17.

For the variant E109I R111L, the sfGFP reporter fluorescence in data set [1] came to 0.0627 ± 0.0016; in data set [2] (ligand: 1 µM Pb), 0.0717 ± 0.003; in data set [2] (ligand: 30 µM Zn), 0.217 ± 0.0064.

As to P61N D64T D131C, the sfGFP reporter fluorescence in data set [1] was 0.139 ± 0.011; in data set [2] (ligand: 1 µM Pb), 0.315 ± 0.076; in data set [2] (ligand: 30 µM Zn) it was 1.1 ± 0.12.

As to N83T D131S, the sfGFP reporter fluorescence in data set [1] was determined as 0.0602 ± 0.0017; in data set [2] (ligand: 1 µM Pb), 0.0836 ± 0.0031; in data set [2] (ligand: 30 µM Zn), 0.146 ± 0.016.

Consider D131M D135A, for which the values for the sfGFP reporter fluorescence in data set [1], in data set [2] (ligand: 1 µM Pb) and in data set [2] (ligand: 30 µM Zn) were 0.0704 ± 0.005, 0.0869 ± 0.0074 and 0.573 ± 0.039, respectively.

On to N83S R111D, for which the sfGFP reporter fluorescence in data set [1] amounted to 0.0636 ± 0.0039; in data set [2] (ligand: 1 µM Pb), 0.0665 ± 0.0026; in data set [2] (ligand: 30 µM Zn), 0.0759 ± 0.00097.

With P61N D64K D131C, the sfGFP reporter fluorescence in data set [1] amounted to 0.119 ± 0.0056; in data set [2] (ligand: 1 µM Pb), 0.297 ± 0.065; in data set [2] (ligand: 30 µM Zn), 0.868 ± 0.068.

Turning to V16T K104V, the sfGFP reporter fluorescence in data set [1] came out at 0.0693 ± 0.0019; in data set [2] (ligand: 1 µM Pb) it was 0.105 ± 0.0073; in data set [2] (ligand: 30 µM Zn), 0.497 ± 0.034.

Consider D64T Q127G, for which the sfGFP reporter fluorescence in data set [1] turned out to be 0.0611 ± 0.004; in data set [2] (ligand: 1 µM Pb), 0.0887 ± 0.0049; in data set [2] (ligand: 30 µM Zn), 0.594 ± 0.062.

In the case of N83R D135A, the sfGFP reporter fluorescence in data set [1] came to 0.0635 ± 0.0017; in data set [2] (ligand: 1 µM Pb), 0.0787 ± 0.005; in data set [2] (ligand: 30 µM Zn), 0.0875 ± 0.0015.

Consider N83T D131M D135A, for which the sfGFP reporter fluorescence is 0.0656 ± 0.0024 in data set [1], 0.0837 ± 0.0023 in data set [2] (ligand: 1 µM Pb) and 0.205 ± 0.011 in data set [2] (ligand: 30 µM Zn).

As to V108L R111L, the sfGFP reporter fluorescence was determined as 0.0611 ± 0.00085 in data set [1], 0.0617 ± 0.0045 in data set [2] (ligand: 1 µM Pb) and 0.114 ± 0.0047 in data set [2] (ligand: 30 µM Zn).

As to N83S E94D K104A, the sfGFP reporter fluorescence came to 0.05986 ± 0.00042 in data set [1], 0.0734 ± 0.0052 in data set [2] (ligand: 1 µM Pb) and 0.422 ± 0.014 in data set [2] (ligand: 30 µM Zn).

As for D87E D131C, the values for the sfGFP reporter fluorescence in data set [1], in data set [2] (ligand: 1 µM Pb) and in data set [2] (ligand: 30 µM Zn) were 0.0622 ± 0.0025, 0.0742 ± 0.0072 and 0.134 ± 0.013, respectively.

With D64T D135R, the sfGFP reporter fluorescence in data set [1] was found to be 0.137 ± 0.008; in data set [2] (ligand: 1 µM Pb), 0.29 ± 0.041; in data set [2] (ligand: 30 µM Zn), 1.76 ± 0.28.

K104V D135A: the sfGFP reporter fluorescence turned out to be 0.0696 ± 0.0011 in data set [1], 0.123 ± 0.0063 in data set [2] (ligand: 1 µM Pb) and 0.678 ± 0.073 in data set [2] (ligand: 30 µM Zn).

D131A D135E: the sfGFP reporter fluorescence worked out at 0.06499 ± 0.00042 in data set [1], 0.0805 ± 0.0086 in data set [2] (ligand: 1 µM Pb) and 0.571 ± 0.06 in data set [2] (ligand: 30 µM Zn).

For L107C G128I P143A, the values for the sfGFP reporter fluorescence in data set [1], in data set [2] (ligand: 1 µM Pb) and in data set [2] (ligand: 30 µM Zn) were 0.52 ± 0.062, 1.09 ± 0.32 and 2.25 ± 0.092, respectively.

Regarding P61N L68F I90T, the sfGFP reporter fluorescence in data set [1] was found to be 0.0702 ± 0.0011; in data set [2] (ligand: 1 µM Pb), 0.0958 ± 0.017; in data set [2] (ligand: 30 µM Zn) it was 0.435 ± 0.044.

Take D131L D135A: the sfGFP reporter fluorescence was 0.0688 ± 0.0015 in data set [1], 0.0969 ± 0.027 in data set [2] (ligand: 1 µM Pb) and 0.476 ± 0.055 in data set [2] (ligand: 30 µM Zn).

Q127A D135P: the sfGFP reporter fluorescence in data set [1] is 0.0621 ± 0.0012; in data set [2] (ligand: 1 µM Pb), 0.0781 ± 0.0053; in data set [2] (ligand: 30 µM Zn), 0.244 ± 0.021.

As for D131H D135K, the sfGFP reporter fluorescence in data set [1] was 0.0669 ± 0.0015; in data set [2] (ligand: 1 µM Pb) it was 0.0876 ± 0.0064; in data set [2] (ligand: 30 µM Zn), 0.579 ± 0.071.

Take D131C P143R: the sfGFP reporter fluorescence in data set [1] was 0.0674 ± 0.0018; in data set [2] (ligand: 1 µM Pb), 0.0812 ± 0.0024; in data set [2] (ligand: 30 µM Zn), 0.196 ± 0.0083.

Take D64K N83T: the sfGFP reporter fluorescence is 0.0636 ± 0.0021 in data set [1], 0.186 ± 0.009 in data set [2] (ligand: 1 µM Pb) and 0.695 ± 0.022 in data set [2] (ligand: 30 µM Zn).

For L107C D131A, the sfGFP reporter fluorescence in data set [1] came to 0.73 ± 0.082; in data set [2] (ligand: 1 µM Pb), 1.4 ± 0.048; in data set [2] (ligand: 30 µM Zn) it was 2.23 ± 0.17.
